Laboratory results as given in paper PMC10307626, “Structural basis of NINJ1-mediated plasma membrane rupture in cell death” (Nature, 2023).
Numbering of substitutions follows the chain as printed.

B1: hNINJ1 Q91A (natural protein, human, UniProt Q92982 1-152, looked up)
chain: MDSGTEEYELNGGLPPGTPGSPDASPARWGWRHGPINVNHYASKKSAAESMLDIALLMANASQLKAVVEQGPSFAFYVPLVVLISISLVLAIGVGVLLIFLVKYDLNNPAKHAKLDFLNNLATGLVFIIVVVNIFITAFGVQKPLMDMAPQQ
notes: ninjurin-1 (NINJ1), human, UniProt Q92982, residues 1–152, point mutant; source: E. coli Rosetta2 (DE3), purified (DDM, Ni-NTA, TEV cleavage); not shown: 8×His, N-terminal, cleaved
B2: hNINJ1 G95L (natural protein, human, UniProt Q92982 1-152, looked up)
chain: B1 chain with A91Q, G95L
notes: as for B1
B3: hNINJ1 T123L (natural protein, human, UniProt Q92982 1-152, looked up)
chain: B1 chain with A91Q, T123L
notes: as for B1
B4: hNINJ1 I134F (natural protein, human, UniProt Q92982 1-152, looked up)
chain: B1 chain with A91Q, I134F
notes: as for B1
B5: hNINJ1 A138L (natural protein, human, UniProt Q92982 1-152, looked up)
chain: B1 chain with A91Q, A138L
notes: as for B1
B6: hNINJ1 A47L (natural protein, human, UniProt Q92982 1-152, looked up)
chain: B1 chain with A47L, A91Q
notes: as for B1
B7: hNINJ1 V82W (natural protein, human, UniProt Q92982 1-152, looked up)
chain: B1 chain with V82W, A91Q
notes: as for B1
B8: hNINJ1 V82F (natural protein, human, UniProt Q92982 1-152, looked up)
chain: B1 chain with V82F, A91Q
notes: as for B1
B9: hNINJ1 L121F (natural protein, human, UniProt Q92982 1-152, looked up)
chain: B1 chain with A91Q, L121F
notes: as for B1
B10: hNINJ1 L121W (natural protein, human, UniProt Q92982 1-152, looked up)
chain: B1 chain with A91Q, L121W
notes: as for B1
B11: full-length, wild-type human NINJ1 (ninjurin-1), residues 1–152 (natural protein, UniProt Q92982 1-152, looked up)
chain: B1 chain with A91Q
notes: ninjurin-1 (NINJ1), human, UniProt Q92982, residues 1–152; residues 39–141 are modelled in the filament structure; residues of the site probably remain at the N-terminus after cleavage; Forms filaments of no fixed number of subunits; also called hNINJ1; hNINJ1(1–152); source: E. coli Rosetta2 (DE3), extracted from membranes with DDM, purified (Ni-NTA, TEV cleavage, SEC on Superose 6); not shown: …
B12: hNINJ1∆1–36 (domain or fragment, human, UniProt Q92982 37-152, looked up)
chain: NVNHYASKKSAAESMLDIALLMANASQLKAVVEQGPSFAFYVPLVVLISISLVLQIGVGVLLIFLVKYDLNNPAKHAKLDFLNNLATGLVFIIVVVNIFITAFGVQKPLMDMAPQQ
notes: ninjurin-1 (NINJ1), human, UniProt Q92982, printed as hNINJ1∆1–36 (residues 1–36 removed); probably as the wild type (8×His and TEV site, cleaved); also called truncated hNINJ1; source: E. coli Rosetta2 (DE3), purified
B13: hNINJ1 K45Q (natural protein, human, UniProt Q92982 1-152, looked up)
chain: B1 chain with K45Q, A91Q
notes: as for B1
B14: hNINJ1 D53A (natural protein, human, UniProt Q92982 1-152, looked up)
chain: B1 chain with D53A, A91Q
notes: as for B1
B15: hNINJ1 I84F (natural protein, human, UniProt Q92982 1-152, looked up)
chain: B1 chain with I84F, A91Q
notes: as for B1

Biological target: the molecule itself
Experiment: negative-stain TEM; 0.02 mg/ml purified protein on glow-discharged carbon-coated copper grids, 2% uranyl acetate; single-point mutants taken directly after TEV cleavage of the 8×His tag

**Q.** Does B1 bind?
**A.** binds

**Q.** Does B2 bind?
**A.** binds

**Q.** Does B3 bind?
**A.** binds

**Q.** Does B4 bind?
**A.** binds

**Q.** Does B5 bind?
**A.** binds

**Q.** Does B6 bind?
**A.** binds

**Q.** Does B7 bind?
**A.** binds

**Q.** Does B8 bind?
**A.** binds

**Q.** Does B9 bind?
**A.** binds

**Q.** Does B10 bind?
**A.** binds

**Q.** Does B11 bind?
**A.** binds

**Q.** Does B12 bind?
**A.** binds

**Q.** Does B13 bind?
**A.** binds

**Q.** Does B14 bind?
**A.** binds

**Q.** Does B15 bind?
**A.** binds
